B1: Srs2 (Saccharomyces cerevisiae S288C) (protein)
chain: MSSNNDLWLHLVSQLNTQQRAAALFDYTRGLQVIAGPGTGKTKVLTSRVAYLILHHHIHPRDIIVTTFTNKAANEMKERLQEMLRGAGVNISELLIGTFHSICLKILYRFGHLVDLQKDWRIIDEKEIDVILDDMIEKVPDQIRDYASSITRKVNLCMPSKNGDEWTIHPKLIKKQISKLKSNAILPEEYILDSNHDAALGYFYQIYQSELSKKNTLDFDDLLMYTFRLLTRVRVLSNIKHVLVDEFQDTNGIQLDLMFLFAKGNHHLSRGMTIVGDPDQSIYAFRNALAHNFLEMGRKCPIEYSTIILVENYRSSQKILNTSEILITQQNKGRQNRAPLRAQFDLDFPPVYMNFPAYFLEAPSLVRELLYLKALPNLFTFNDFAILVRQRRQIKRIESALIEHRIPYKIIRGHSFWDSKETRAMLNLLKLIFSPNDKHAILASLLYPARGLGPATGEKIKNALDTLATDVSCFQILKDISSKKIMLDIPTKGRSVIADFISMIENCQLLLQSTLLGGLSDLFDKLYELSGLKYEYLYKDGKKKNDQLEKSEPNLLNARHKNIELLKNYFLALLSKSESSDKEKNEAIKAATDEAEPIENKVITPKEYLRNFFNSLSLHSDAAEEEESESNKDAKIKREKNGFVTISTIHGAKGLEWPVVFIPGCEEGIIPCVFNDDKKDESEEDEEEDQENSKKDASPKKTRVLSVEDSIDEERRMFFVAQTRAKYLLYLSNTVTVEDVDRPRIASRFLTTDLIKAMSDSQKLFESTNSIKKLYRILNKKPPAEDDKLFSLDQLRKDYNQFIENRRERMIWQGIQMNDVYGIQLSRNKLLGSVSDFTSAADQLRLETQNSIFPQKKLIEKSRPSKINGNYAPKSRVKSPEKRYAPETTSFHSPTKKKVYAPQYVSTTNVPSRQEFHSSTGKNIPFLRREDRSITDISPRSSTRSLKGASPNKTSHMSDDLMRPSPTRKDKVTRNIHFATAGTFRIETQSNVDELHPPEYSNKSGQSLTSSEFSGFSSACSNSDQPTNLIEDINNELDLSDEELLNDISIERRRELLGSKKTKKIKPKTRNRKSKRGDKVKVEEVIDLKSEFEEDDSRNTTAAELLHNPDDTTVDNRPIISNAKFLADAAMKKTQKFSKKVKNEPASSQMDIFSQLSRAKKKSKLNNGEIIVID
B2: forked DNA P1/P2 (dsDNA)
DNA 1: AGAAGGTTTCGAATCAGAGGTAGGTGCCCGGCCTCCAACTTGCCGTATTCCTGGT
DNA 2: ACCAGGAATACGGCAAGTTGGAGGCCGGGCTGGATGGAGACTAAGCTTTGGAAGT

Columns and labels:
[1] = substrate: Nc1ncnc2c1ncn2[C@@H]1O[C@H](COP(=O)(O)OP(=O)(O)OP(=O)(O)O)[C@@H](O)[C@H]1O; test: purified protein; conditions: saturating 56-mer ssDNA, 37°C, pH 7.6, 7 mM MgCl2, 100 mM NaCl
[2] = target: Srs2 (Saccharomyces cerevisiae, UniProt P12954 1-1174); test: EMSA

Binder | Km [1] | kcat [1] | binding result [2]
B1 | 143 µM | 55.3 s⁻¹ | –
B2 | – | – | binds

From PMC2528196
